This assay concerns the target human CCR10 (human) (UniProt P46092). Description: cell-based or functional assay.
Chain of human CCR10 (human) (P46092 whole entry): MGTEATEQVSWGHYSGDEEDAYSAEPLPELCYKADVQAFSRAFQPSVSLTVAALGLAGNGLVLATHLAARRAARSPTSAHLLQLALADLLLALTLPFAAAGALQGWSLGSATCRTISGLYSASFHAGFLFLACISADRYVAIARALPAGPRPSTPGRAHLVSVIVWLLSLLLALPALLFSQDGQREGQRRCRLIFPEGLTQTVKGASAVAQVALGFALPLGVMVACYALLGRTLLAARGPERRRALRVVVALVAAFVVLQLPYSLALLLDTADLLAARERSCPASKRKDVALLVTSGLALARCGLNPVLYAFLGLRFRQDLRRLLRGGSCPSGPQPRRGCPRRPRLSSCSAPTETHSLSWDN
For the substance “cyclo(-Phe(4CF3)-Cyp-Trp-Dab-^DPro-Oic-) (peptide)”, the IC50 (nM) Calcium Flux Assay was determined as 58.1 nM and the IC50 (nM) Chemotaxis Assay was 13.4 nM.
“cyclo(-Trp-Cyp-Ala(2Quin)-Dab-^DPro-Oic-) (peptide)”: the IC50 (nM) Calcium Flux Assay came to 283 nM and the IC50 (nM) Chemotaxis Assay is 30.3 nM.
Consider “cyclo(-Trp-Cyp-Trp-Dab(MePpzCO)-^DPro-Oic-) (peptide)”, for which the IC50 (nM) Calcium Flux Assay came out at 53.9 nM and the IC50 (nM) Chemotaxis Assay was found to be 5.3 nM.
Turning to “cyclo(-Trp-Cyp-Trp-Dap-^DPro-Oic-) (peptide)”, the IC50 (nM) Calcium Flux Assay stood at 52.7 nM.
As to “cyclo(-Trp-Cyp-Trp-Dab-^DPro-Pro((4R)3CNBn)-) (peptide)”, the IC50 (nM) Calcium Flux Assay is 27.9 nM and the IC50 (nM) Chemotaxis Assay came to 3.8 nM.
As for “cyclo(-Trp-Ac8c-Trp-Dab-^DPro-Oic-) (peptide)”, the IC50 (nM) Calcium Flux Assay was determined as 706 nM and the IC50 (nM) Chemotaxis Assay was 257 nM.
For “cyclo(-Trp-Cyp-Trp-Dab(MEMCO)-^DPro-Oic-) (peptide)”, in that order: 62.8 nM and 11.5 nM.
The like results for “cyclo(-Trp-Cyp-Trp-Dab(Dab)-^DPro-Oic-) (peptide)” were, in that order, 567 nM and 50.2 nM.
Take “cyclo(-2Nal-Cyp-Trp-Dab-^DPip-Pip-) (peptide)”: the IC50 (nM) Calcium Flux Assay worked out at 43.2 nM and the IC50 (nM) Chemotaxis Assay came out at 9.7 nM.
The like results for “cyclo(-Trp-Cyp-Trp-Dab-^DPro-(4S)-Hyp(Bn)-) (peptide)” were, in that order, 260 nM and 60.1 nM.
As to “cyclo(-Trp-Cyp-Trp-Arg-^DPro-Tic(7OH)-) (peptide)”, the IC50 (nM) Calcium Flux Assay worked out at 78.5 nM.
Turning to “cyclo(-Trp-Cyp-Trp-Lys(Ac)-^DPro-Oic-) (peptide)”, the IC50 (nM) Calcium Flux Assay came to 28 nM and the IC50 (nM) Chemotaxis Assay was 2.3 nM.
Turning to “cyclo(-Trp-Cyp-2Nal-Dab-^DPip-Oic-) (peptide)”, the IC50 (nM) Calcium Flux Assay is 70.5 nM.
With “cyclo(-Trp-Cyp-Trp-Dab-^DPro-Hyp(4CNBn)-) (peptide)”, the IC50 (nM) Calcium Flux Assay came out at 48.9 nM and the IC50 (nM) Chemotaxis Assay was 143 nM.
Regarding “cyclo(-Trp-Cyp-Ala(2Furyl)-Dab-^DPro-Oic-) (peptide)”, the IC50 (nM) Calcium Flux Assay was determined as 132 nM.

Source of the values: patent US20120283168A1.
